{
  "source": "FireProtDB (doi:10.1006/jmbi.1993.1336)",
  "parents": {"B1": {"name": "Guanyl-specific ribonuclease T1, P00651 (parent)", "chain": "MMYSKLLTLTTLLLPTALALPSLVERACDYTCGSNCYSSSDVSTAQAAGYQLHEDGETVGSNSYPHKYNNYEGFDFSVSSPYYEWPILSSGDVYSGGSPGADRVVFNENNQLAGVITHTGASGNNFVECT"}},
  "data": [
    {"variants_of": "B1", "conditions": "Aspergillus oryzae (strain ATCC 42149 / RIB 40); pH 5; 25 °C; GdnHCl; Fluorescence; Sodium acetate 0.1 M; reversible: yes; structure 1RN1; whole UniProt chain shown", "units": {"ddG of mutation (higher = less stable)": "kcal/mol", "denaturant m value": "kcal/mol/M", "denaturant midpoint (higher = more stable)": "M", "unfolding free energy": "kcal/mol"}, "values": [
      {"variant": "MMYSKLLTLTTLLLPTALALPSLVERACDYTCGSNCYSSSDVSTAQAAGYQLHEDGETVGSNSYAHKYNNYEGFDFSVSSPYYEWPILSSGDVYSGGSPGADRVVFNENNQLAGVITHTGASGNNFVECT", "note": "[P65A]", "ddG of mutation (higher = less stable)": 5.12, "denaturant m value": 2.63, "denaturant midpoint (higher = more stable)": 1.71, "unfolding free energy": 4.88}
    ]},
    {"variants_of": "B1", "conditions": "Aspergillus oryzae (strain ATCC 42149 / RIB 40); pH 8; 10 °C; GdnHCl; Fluorescence; Tris 0.1 M; reversible: yes; structure 1RN1; whole UniProt chain shown", "units": {"ddG of mutation (higher = less stable)": "kcal/mol", "denaturant m value": "kcal/mol/M", "denaturant midpoint (higher = more stable)": "M", "unfolding free energy": "kcal/mol"}, "values": [
      {"variant": "MMYSKLLTLTTLLLPTALALPSLVERACDYTCGSNCYSSSDVSTAQAAGYQLHEDGETVGSNSYAHKYNNYEGFDFSVSSPYYEWPILSSGDVYSGGSPGADRVVFNENNQLAGVITHTGASGNNFVECT", "note": "[P65A]", "ddG of mutation (higher = less stable)": 4.33, "denaturant m value": 2.87, "denaturant midpoint (higher = more stable)": 1.43, "unfolding free energy": 4.11}
    ]}
  ]
}
